From paper PMC10245814 (bioRxiv, 2023)

Target: T1, BabA^AD (residues 25 to 460 of mature BabA) (Helicobacter pylori 17875/Leb (CCUG …))
T1 chain: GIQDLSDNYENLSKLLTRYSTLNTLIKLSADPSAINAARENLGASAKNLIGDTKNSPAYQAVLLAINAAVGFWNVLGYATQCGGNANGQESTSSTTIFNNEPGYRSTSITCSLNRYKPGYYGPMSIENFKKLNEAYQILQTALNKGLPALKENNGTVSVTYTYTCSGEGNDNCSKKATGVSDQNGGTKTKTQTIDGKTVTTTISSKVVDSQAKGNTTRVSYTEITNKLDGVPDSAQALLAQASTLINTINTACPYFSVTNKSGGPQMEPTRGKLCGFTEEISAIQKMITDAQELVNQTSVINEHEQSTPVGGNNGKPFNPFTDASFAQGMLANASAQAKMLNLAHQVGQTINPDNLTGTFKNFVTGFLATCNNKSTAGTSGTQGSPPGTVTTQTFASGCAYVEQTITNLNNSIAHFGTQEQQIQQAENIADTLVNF
Experiment: crystal structure

B1: nanobody Nb-ER19 (VHH)
VHH: QVQLQESGGGLVQPGGSLRLSCAASGSIFSGNVMGWYRQAPGKLREWVAAITPQGVPNYADSVKGRFTISRDNAKNMLYLQMSSLKPEDTALYYCNRLPNYRSWGQGTQVTVSS
Q: Does B1 bind?
A: binds
